Experimental data taken from US7919295B2, “Polyol oxidases” (Danisco US Inc., priority 2006, dated 2011).

How the values were obtained:
[1] = cited from earlier work
[2] = Stability and bleaching performance of SOx in HDL laundry wash conditions
Source text: In this Example, methods to determine the stability and bleaching performance of SOx (produced as described above) in AATCC liquid detergent laundry wash conditions are described. In these experiments, AATCC standard detergent (American Association of Textile Chemists and Colorists Heavy Duty Liquid Detergent Version 2003 without brightener; key components include linear alkane sulfonate, alcohol ethoxylate, propanediol, citric acid, fatty acid, castic soda and water; Testfabrics) was used.
Three bleachable cotton swatches with juice (STC CFT CS-15), wine (STC CFT CS-3), and tea (STC CFT BC-3) were used. The swatches were cut into 15 mm circles with a textile punch (Model B equipped with a ⅝″ die cutter; Model 93046; NAEF).
Single swatch disks were placed into each well of a 24-well microplate (Costar 3526). One (1) ml of washing solution pH 8, containing per liter, 1.5 ml AATCC HDL detergent, 75-100 mM sorbitol, 6 gpg hardness (diluted from stock 15000 gpg hardness solution containing 1.735 M calcium chloride and 0.67 M magnesium chloride), and 0.05% TAED (tetraacetylethylenediamine, Fluka) was added to each well. Five to fifty (5-50 ul) microliters of partially purified sorbitol oxidase or sorbitol oxidase obtain from a late fermentation run (108 hr EFT “effective fermentation time”) produced as described in Examples 1 and 2, were added with a positive displacement pipette to 3-8 wells in one column. The control wells contained no enzyme. The microplate was covered with a plastic lid and aluminum foil and incubated at 37° C. with 100 rpm gentle rotation for 14 hr. […]
One hundred microliters (100 ul) of 0.1 mM sodium carbonate were added to each well to elevate the pH to 10. […] The disks were inspected visually and then analyzed with a Reflectometer CR-200 (Minolta) calibrated on a standard white tile. The average L values were calculated as was the percent soil release (% SR=100%×(Final reflectance-Initial reflectance)/(Reflectance of a white standard-Initial reflectance). Graphs showing the results of these experiments are provided in FIGS. 5-8.

[3] = Substrate range study: SCO6147 SOx activity on D-sorbitol versus D-xylitol; assay type: biochemical, Streptomyces lividans; conditions: SOx transformed in S. lividans; substrates 50 mM, pH 7.0
Protocol: Sorbitol oxidase obtained using the methods described in Example 1, was tested for finding its activity with various polyol substrates. All substrates used in the assay were 50 mM in 10 mM phosphate buffer pH 7.0. The relative activity using sorbitol as (++++++=100%) is shown below in Table 3.

B1: sorbitol oxidase from Streptomyces species H-7775: sorbitol oxidase of Streptomyces species H-7775, Genbank AB000519, 420 amino acids (protein)
chain: MTPAEKNWAGNITFGAKRLCVPRSVRELRETVAASGAVRPLGTRHSFNTVADTSGDHVSLAGLPRVVDIDVPGRAVSLSAGLRFGEFAAELHARGLALANLGSLPHISVAGAVATGTHGSGVGNRSLAGAVRALSLVTADGETRTLRRTDEDFAGAVVSLGALGVVTSLELDLVPAFEVRQWVYEDLPEATLAARFDEVMSAAYSVSVFTDWRPGPVGQVWLKQRVGDEGARSVMPAEWLGARLADGPRHPVPGMPAGNCTAQQGVPGPWHERLPHFRMEFTPSNGDELQSEYFVARADAVAAYEALARLRDRIAPVLQVSELRTVAADDLWLSPAHGRDSVAFHFTWVPDAAAVAPVAGAIEEALAPFGARPHWGKVFSTAPEVLRTLYPRYADFEELVGRHDPEGTFRNAFLDRYFRR
modifications: Streptomyces H-7775
notes: sorbitol oxidase of Streptomyces species H-7775, Genbank AB000519, 420 amino acids
[1]; 24 hours at 30° C.
  pH range in which enzyme is stable: 7.5-10 pH
[1]; at pH 7.5
  optimum temperature: 50 °C

B2: sorbitol oxidase: partially purified sorbitol oxidase or fermentation broth cell lysate (108 hr EFT) used for biobleaching (protein)
chain: MTPAEKNWAGNITFGAKRLCVPRSVRELRETVAASGAVRPLGTRHSFNTVADTSGDHVSLAGLPRVVDIDVPGRAVSLSAGLRFGEFAAELHARGLALANLGSLPHISVAGAVATGTHGSGVGNRSLAGAVRALSLVTADGETRTLRRTDEDFAGAVVSLGALGVVTSLELDLVPAFEVRQWVYEDLPEATLAARFDEVMSAAYSVSVFTDWRPGPVGQVWLKQRVGDEGARSVMPAEWLGARLADGPRHPVPGMPAGNCTAQQGVPGPWHERLPHFRMEFTPSNGDELQSEYFVARADAVAAYEALARLRDRIAPVLQVSELRTVAADDLWLSPAHGRDSVAFHFTWVPDAAAVAPVAGAIEEALAPFGARPHWGKVFSTAPEVLRTLYPRYADFEELVGRHDPEGTFRNAFLDRYFRR
modifications: Streptomyces H-7775
notes: partially purified sorbitol oxidase or fermentation broth cell lysate (108 hr EFT) used for biobleaching
[2]; AATCC HDL detergent, pH 8, 37° C., 14 hr
  stability in typical liquid detergent system: stable
[2]; in presence of sorbitol mixed with detergent and atmospheric oxygen
  hydrogen peroxide production in detergent: able to produce effective concentration of hydrogen peroxide
[2]; with bleach booster TAED, blueberry, tea and wine stains, FIGS. 5-8
  bleaching of colored stains: able to help bleach

B3: POx of SEQ ID NO:4: sorbitol oxidase of Streptomyces lividans, gene identified from S. coelicolor SCO6147, expressed intracellularly in S. lividans g3s3 (protein)
chain: MGDITVTNWAGNITYTAKELLRPHSLDALRALVADSARVRVLGSGHSFNEIAEPGDGGVLLSLAGLPSVVDVDTAARTVRVGGGVRYAELARVVHARGLALPNMASLPHISVAGSVATGTHGSGVGNGSLASVVREVELVTADGSTVVIARGDERFGGAVTSLGALGVVTSLTLDLEPAYEMEQHVFTELPLAGLDPATFETVMAAAYSVSLFTDWRAPGFRQVWLKRRTDRPLDGFPYAAPAAEKMHPVPGMPAVNCTEQFGVPGPWHERLPHFRAEFTPSSGAELQSEYLMPREHALAALHAMDAIRETLAPVLQTCEIRTVAADAQWLSPAYGRDTVAAHFTWVEDTAAVLPVVRRLEEALVPFAARPHWGKVFTVPAGELRALYPRLADFGALAGALDPAGKFTNAFVRGVLAG
modifications: Streptomyces lividans
notes: sorbitol oxidase of Streptomyces lividans, gene identified from S. coelicolor SCO6147, expressed intracellularly in S. lividans g3s3
[3]
  activity on D-sorbitol relative to D-xylitol: 2.1 times
